Experiments:
[1] = test system: SCC152 cells; assay: Phagocytic activity of tandem expression cassette transduced CD8+ T cells; type: cell-based, human; conditions: for phagocytosis of SCC152 cells: CD8+ T cells, 6 hours, 1:1 ratio; for dependence of engulfment of SCC152 cells on Racl: Racl inhibitor NSC23766 (50 μM), data not shown
Procedure: Phagocytic activity of tandem expression cassette transduced CD8+ T cells was detected by co-culturing tandem expression cassette transduced CD8+ T cells with SCC152 cells for 6 hours at a 1:1 ratio. Phagocytic events were visualized and quantified using KEYENCE BZ-X710 fluorescence microscope, 20X objective and hybrid capture software.

[2] = test system: H1975 lung adenocarcinoma cells; assay: LDH assay, H1975 cells, 48 hours co-culture with 1 μM Osimeritinib; type: cell-based; conditions: E:T 1:1, 48 hours, CD4+ T cells
Excerpt: CER30 comprises a Tim4 binding domain, Tim4 transmembrane domain, and an engulfment signaling domain comprising a primary engulfment signaling domain comprising a TRAF2 signaling domain. CER30 has a polypeptide sequence as set forth in SEQ ID NO:96. CER110 has a polypeptide sequence of SEQ ID NO:125 and comprises a Tim4 binding domain, Tim4 transmembrane domain, and an engulfment signaling domain comprising a primary engulfment signaling domain comprising a TRAF6 signaling domain and a secondary engulfment signaling domain comprising a DAP12 signaling domain. CER112 has a polypeptide sequence of SEQ ID NO:128 and comprises a Tim4 binding domain, Tim4 transmembrane domain, and an engulfment signaling domain comprising a primary engulfment signaling domain comprising a TRAF6 signaling domain and a secondary engulfment signaling domain comprising a NFAM1 signaling domain. CER127 has a polypeptide sequence of SEQ ID NO:175 and comprises a Tim4 binding domain, Tim4 transmembrane domain, and an engulfment signaling domain comprising a primary engulfment signaling domain comprising a TRAF2 signaling domain and a secondary engulfment signaling domain comprising a TLR2 signaling domain. H1975 cells are more resistant to EGFR inhibitors, so Osimeritinib was used at slightly higher concentration. H1975 lung adenocarcinoma cells harboring an EGFR mutation were co-cultured with CER-expressing or mock-transduced (vector only) CD4+ T cells with 1 μM of Osimeritinib. After 48 hours of co-culture at a 1:1 effector:target cell ratio, T cells were washed away, and the number of viable H1975 cells was quantified using a calorimetric LDH assay (FIG. 57). Cell viability experiments were performed in triplicate and presented as % of control.

Molecule	phagocytosis of SCC152 cells [1]	dependence of engulfment of SCC152 cells on Racl [1]	killing of H1975 cells (LDH) [2]
CER29−HPV16 E7 TCR: tandem expression cassette: CER29, T2A peptide, HPV16 E7 specific TCR; SEQ ID NO:169 (protein, CER29_T2A_HPV16_E7_TCR tandem cassette) MSKGLLLLWLVTELWWLYLTPAASEDTIIGFLGQPVTLPCHYLSWSQSRNSMCWGKGSCPNSKCNAELLRTDGTRIISRKSTKYTLLGKVQFGEVSLTISNTNRGDSGVYCCRIEVPGWFNDVKKNVRLELRRATTTKKPTTTTRPTTTPYVTTTTPELLPTTVMTTSVLPTTTPPQTLATTAFSTAVTTCPSTTPGSFSQETTKGSAFTTESETLPASNHSQRSMMTISTDIAVLRPTGSNPGILPSTSQLTTQKTTLTTSESLQKTTKSHQINSRQTILIIACCVGFVLMVLLFLAFLMSLLNCENSCGSSQSESDCCVAMASSCSAVTKDDSVGGTASTGNLSSSFMEEIQGYDVEFDPPLESKYECPICLMALREAVQTPCGHRFCKACIIKSIRDAGHKCPVDNEILLENQLFPDNFAKREILSLMVKCPNEGCLHKMELRHLEDHQAHCEFALMDCPQCQRPFQKFHINIHILKDCPRRQVSCDNCAASMAFEDKEIHDQNCPLANVICEYCNTILIREQMPNHYDLDCPTAPIPCTFSTFGCHEKMQRNHLARHLQENTQSHMRMLALEGGGEGRGSLLTCGDVEENPGPMAPGLLCWALLCLLGAGLVDAGVTQSPTHLIKTRGQQVTLRCSPKSGHDTVSWYQQALGQGPQFIFQYYEEEERQRGNFPDRFSGHQFPNYSSELNVNALLLGDSALYLCASSLGWRGGRYNEQFFGPGTRLTVLEDLRNVTPPKVSLFEPSKAEIANKQKATLVCLARGFFPDHVELSWWVNGKEVHSGVCTDPQAYKESNYSYCLSSRLRVSATFWHNPRNHFRCQVQFHGLSEEDKWPEGSPKPVTQNISAEAWGRADCGITSASYQQGVLSATILYEILLGKATLYAVLVSTLVVMAMVKRKNSRAKRSGSGATNFSLLKQAGDVEENPGPMWGVFLLYVSMKMGGTTGQNIDQPTEMTATEGAIVQINCTYQTSGFNGLFWYQQHAGEAPTFLSYNVLDGLEEKGRFSSFLSRSKGYSYLLLKELQMKDSASYLCASVDGNNRLAFGKGNQVVVIPNIQNPEPAVYQLKDPRSQDSTLCLFTDFDSQINVPKTMESGTFITDKCVLDMKAMDSKSNGAIAWSNQTSFTCQDIFKETNATYPSSDVPCDATLTEKSFETDMNLNFQNLLVIVLRILLLKVAGFNLLMTLRLWSS	capable of phagocytosing SCC152 cells	Racl-dependent manner	–
CER31−HPV16 E7 TCR: tandem expression cassette: CER31, T2A peptide, HPV16 E7 specific TCR; SEQ ID NO:170 (protein, CER31_T2A_HPV16_E7_TCR tandem cassette) MSKGLLLLWLVTELWWLYLTPAASEDTIIGFLGQPVTLPCHYLSWSQSRNSMCWGKGSCPNSKCNAELLRTDGTRIISRKSTKYTLLGKVQFGEVSLTISNTNRGDSGVYCCRIEVPGWFNDVKKNVRLELRRATTTKKPTTTTRPTTTPYVTTTTPELLPTTVMTTSVLPTTTPPQTLATTAFSTAVTTCPSTTPGSFSQETTKGSAFTTESETLPASNHSQRSMMTISTDIAVLRPTGSNPGILPSTSQLTTQKTTLTTSESLQKTTKSHQINSRQTILIIACCVGFVLMVLLFLAFLMESSKKMDSPGALQTNPPLKLHTDRSAGTPVFVPEQGGYKEKFVKTVEDKYKCEKCHLVLCSPKQTECGHRFCESCMAALLSSSSPKCTACQESIVKDKVFKDNCCKREILALQIYCRNESRGCAEQLMLGHLLVHLKNDCHFEELPCVRPDCKEKVLRKDLRDHVEKACKYREATCSHCKSQVPMIALQKHEDTDCPCVVVSCPHKCSVQTLLRSELSAHLSECVNAPSTCSFKRYGCVFQGTNQQIKAHEASSAVQHVNLLKEWSNSLEKKVLEGGGEGRGSLLTCGDVEENPGPMAPGLLCWALLCLLGAGLVDAGVTQSPTHLIKTRGQQVTLRCSPKSGHDTVSWYQQALGQGPQFIFQYYEEEERQRGNFPDRFSGHQFPNYSSELNVNALLLGDSALYLCASSLGWRGGRYNEQFFGPGTRLTVLEDLRNVTPPKVSLFEPSKAEIANKQKATLVCLARGFFPDHVELSWWVNGKEVHSGVCTDPQAYKESNYSYCLSSRLRVSATFWHNPRNHFRCQVQFHGLSEEDKWPEGSPKPVTQNISAEAWGRADCGITSASYQQGVLSATILYEILLGKATLYAVLVSTLVVMAMVKRKNSRAKRSGSGATNFSLLKQAGDVEENPGPMWGVFLLYVSMKMGGTTGQNIDQPTEMTATEGAIVQINCTYQTSGFNGLFWYQQHAGEAPTFLSYNVLDGLEEKGRFSSFLSRSKGYSYLLLKELQMKDSASYLCASVDGNNRLAFGKGNQVVVIPNIQNPEPAVYQLKDPRSQDSTLCLFTDFDSQINVPKTMESGTFITDKCVLDMKAMDSKSNGAIAWSNQTSFTCQDIFKETNATYPSSDVPCDATLTEKSFETDMNLNFQNLLVIVLRILLLKVAGFNLLMTLRLWSS	capable of phagocytosing SCC152 cells	Racl-dependent manner	–
CER110: Tim4 binding and transmembrane domains, truncated Traf6 primary and DAP12 secondary signaling domains; SEQ ID NO:125 (protein, CER110 chimeric engulfment receptor) MSKGLLLLWLVTELWWLYLTPAASEDTIIGFLGQPVTLPCHYLSWSQSRNSMCWGKGSCPNSKCNAELLRTDGTRIISRKSTKYTLLGKVQFGEVSLTISNTNRGDSGVYCCRIEVPGWFNDVKKNVRLELRRATTTKKPTTTTRPTTTPYVTTTTPELLPTTVMTTSVLPTTTPPQTLATTAFSTAVTTCPSTTPGSFSQETTKGSAFTTESETLPASNHSQRSMMTISTDIAVLRPTGSNPGILPSTSQLTTQKTTLTTSESLQKTTKSHQINSRQTILIIACCVGFVLMVLLFLAFLMSLLNCENSCGSSQSESDCCVAMASSCSAVTKDDSVGGTASTGNLSSSFMEEIQGYDVEFDPPLESKYECPICLMALREAVQTPCGHRFCKACIIKSIRDAGHKCPVDNEILLENQLFPDNFAKREILSLMVKCPNEGCLHKMELRHLEDHQAHCEFALMDCPQCQRPFQKFHINIHILKDCPRRQVSCDNCAASMAFEDKEIHDQNCPLANVICEYCNTILIREQMPNHYDLDCPTAPIPCTFSTFGCHEKMQRNHLARHLQENTQSHMRMLAYFLGRLVPRGRGAAEAATRKQRITETESPYQELQGQRSDVYSDLNTQRPYYK	–	–	synergistic killing of H1975 lung adenocarcinoma cells upon EGFR inhibition
CER112: Tim4 binding and transmembrane domains, truncated Traf6 primary and NFAM1 secondary signaling domains; SEQ ID NO:128 (protein, CER112 chimeric engulfment receptor) MSKGLLLLWLVTELWWLYLTPAASEDTIIGFLGQPVTLPCHYLSWSQSRNSMCWGKGSCPNSKCNAELLRTDGTRIISRKSTKYTLLGKVQFGEVSLTISNTNRGDSGVYCCRIEVPGWFNDVKKNVRLELRRATTTKKPTTTTRPTTTPYVTTTTPELLPTTVMTTSVLPTTTPPQTLATTAFSTAVTTCPSTTPGSFSQETTKGSAFTTESETLPASNHSQRSMMTISTDIAVLRPTGSNPGILPSTSQLTTQKTTLTTSESLQKTTKSHQINSRQTILIIACCVGFVLMVLLFLAFLMSLLNCENSCGSSQSESDCCVAMASSCSAVTKDDSVGGTASTGNLSSSFMEEIQGYDVEFDPPLESKYECPICLMALREAVQTPCGHRFCKACIIKSIRDAGHKCPVDNEILLENQLFPDNFAKREILSLMVKCPNEGCLHKMELRHLEDHQAHCEFALMDCPQCQRPFQKFHINIHILKDCPRRQVSCDNCAASMAFEDKEIHDQNCPLANVICEYCNTILIREQMPNHYDLDCPTAPIPCTFSTFGCHEKMQRNHLARHLQENTQSHMRMLALWNKKRMRGPGKDPTRKCPDPRSASSPKQHPSESVYTALQRRETEVYACIENEDGSSPTAKQSPLSQERPHRFEDDGELNLVYENL	–	–	synergistic killing of H1975 lung adenocarcinoma cells upon EGFR inhibition
CER120: Tim4 binding and transmembrane domains, TLR1 primary and DAP12 secondary signaling domains; SEQ ID NO:147 (protein, CER120 protein) MSKGLLLLWLVTELWWLYLTPAASEDTIIGFLGQPVTLPCHYLSWSQSRNSMCWGKGSCPNSKCNAELLRTDGTRIISRKSTKYTLLGKVQFGEVSLTISNTNRGDSGVYCCRIEVPGWFNDVKKNVRLELRRATTTKKPTTTTRPTTTPYVTTTTPELLPTTVMTTSVLPTTTPPQTLATTAFSTAVTTCPSTTPGSFSQETTKGSAFTTESETLPASNHSQRSMMTISTDIAVLRPTGSNPGILPSTSQLTTQKTTLTTSESLQKTTKSHQINSRQTILIIACCVGFVLMVLLFLAFLSYLDLPWYLRMVCQWTQTRRRARNIPLEELQRNLQFHAFISYSGHDSFWVKNELLPNLEKEGMQICLHERNFVPGKSIVENIITCIEKSYKSIFVLSPNFVQSEWCHYELYFAHHNLFHEGSNSLILILLEPIPQYSIPSSYHKLKSLMARRTYLEWPKEKSKRGLFWANLRAAINIKLTEQAKKYFLGRLVPRGRGAAEAATRKQRITETESPYQELQGQRSDVYSDLNTQRPYYK	–	–	synergistic killing of H1975 lung adenocarcinoma cells upon EGFR inhibition

Source: patent US11708423B2, “Chimeric engulfment receptor molecules and methods of use” (CERO THERAPEUTICS, INC., priority 2017, dated 2023)
